HSA data for 16 molecules are collected here from patent US20210145976A1.

Residue numbers refer to the chain shown, from its start.

B1: SEQ ID NO 127 (designed binder)
chain: MLPAPKNLVVSRVTEDSARLSWTAPDAAFDSFPIPYGESPPSGEAIVLTVPGSERSYDLTGLKPGTEYVVIIRGVKGGGRSGPLSAISTT
B2: SEQ ID NO 132 (designed binder)
chain: MLPAPKNLVVSRVTEDSARLSWTAPDAAFDSFTIVYAEVTYDGEAIVLTVPGSERSYDLTGLKPGTEYDVFIEGVKGGELSWPLSAIFTT
B3: SEQ ID NO 144 (designed binder)
chain: B2 chain with T33I, V35P, T40R, Y41P, D69S, F71L, E73H, E79K, W82L
B4: SEQ ID NO 133 (designed binder)
chain: B2 chain with T33P, A37G, V39A, T40W, Y41V, D42T, F71W
B5: SEQ ID NO 134 (designed binder)
chain: MLPAPKNLVVSRVTEDSARLSWTAPDAAFDSFWIDYYERKYVGEAIVLTVPGSERSYDLTGLKPGTEYEVTIYGVKGGWYSDPLSAIFTT
B6: SEQ ID NO 139 (designed binder)
chain: MLPAPKNLVVSRVTEDSARLSWTAPDAAFDSFDISYWESGKYGEAIVLTVPGSESSYDLTGLKPGTEYLVDIFGVKGGYPSEPLSAIFTT
B7: SEQ ID NO 128 (designed binder)
chain: MLPAPKNLVVSRVTEDSARLSWTAPDAAFDSFIINYIEIVQYGEAIVLTVPGSERSYDLTGLKPGTEYPESIWGVKGGGASSPLSAIFTT
B8: SEQ ID NO 140 (designed binder)
chain: MLPAPKNLVVSRVTEDSARLSWTAPDAAFDSFWISYEESDTEGEAIYLRVPGSERSYDLTGLKPGTEYNVTIQGVKGGFPSMPLSAIFTT
B9: SEQ ID NO 40 (designed binder)
chain: MLPAPKNLVVSRVTEDSARLSWTAPDAAFDSFVIEYWEYVGHGEAIVLTVPGSERSYDLTGLKPGTEYSVGIYGVKGGSLSRPLSAIFTT
B10: SEQ ID NO 141 (designed binder)
chain: B9 chain with W37F, Y39Q, V40F, G41N, H42L, S69L, S79W, R82H
B11: SEQ ID NO 143 (designed binder)
chain: MLPAPKNLVVSRVTEDSARLSWTAPDAAFDSFHIAYEEADSEGEAIYLRVPGSERSYDLTGLKPGTEYSVNIQGVKGGIVSFPLHAEFTT
B12: SEQ ID NO 130 (designed binder)
chain: MLPAPKNLVVSRVTEDSARLSWTAPDAAFDSFHIPYVEAEVPGEAIQLHVPGSERSYDLTGLKPGTEYYVEIWGVKGGFYSPPLIAEFTT
B13: SEQ ID NO 137 (designed binder)
chain: MLPAPKNLVVSRVTEDSARLSWTAPDAAFDSFEIEYDEPSVAGEAIVLTVPGSERSYDLTGLKPGTEYRVFIWGVKGGNQSWPLSAIFTT
B14: SEQ ID NO 138 (designed binder)
chain: MLPAPKNLVVSRVTEDSARLSWTAPDAAFDSFFIKYIEWWADGEAIVLTVPGSERSYDLTGLKPGTEYLVEIYGVKGGRQSYPLSAIFTT
B15: SEQ ID NO 142 (designed binder)
chain: MLPAPKNLVVSRVTKDSARLSWTAPDAAFDSFHIAYEEATTYGEAIFLRVPGSERSYDLTGLKPGTEYEVKIHGVKGGADSKPLVAPFTT
B16: SEQ ID NO 136 (designed binder)
chain: MLPAPKNLVVSRVTEDSARLSWTAPDAAFDSFFIYYIESYPAGEAIVLTVPGSERSYDLTGLKPGTEYWMGIDGVKGGRWSTPLSAIFTT

The target of this assay is human serum albumin (human) (UniProt P02768). Kind of assay: screening ELISA.
Sequence of human serum albumin (human) (P02768 25-609 limits assumed): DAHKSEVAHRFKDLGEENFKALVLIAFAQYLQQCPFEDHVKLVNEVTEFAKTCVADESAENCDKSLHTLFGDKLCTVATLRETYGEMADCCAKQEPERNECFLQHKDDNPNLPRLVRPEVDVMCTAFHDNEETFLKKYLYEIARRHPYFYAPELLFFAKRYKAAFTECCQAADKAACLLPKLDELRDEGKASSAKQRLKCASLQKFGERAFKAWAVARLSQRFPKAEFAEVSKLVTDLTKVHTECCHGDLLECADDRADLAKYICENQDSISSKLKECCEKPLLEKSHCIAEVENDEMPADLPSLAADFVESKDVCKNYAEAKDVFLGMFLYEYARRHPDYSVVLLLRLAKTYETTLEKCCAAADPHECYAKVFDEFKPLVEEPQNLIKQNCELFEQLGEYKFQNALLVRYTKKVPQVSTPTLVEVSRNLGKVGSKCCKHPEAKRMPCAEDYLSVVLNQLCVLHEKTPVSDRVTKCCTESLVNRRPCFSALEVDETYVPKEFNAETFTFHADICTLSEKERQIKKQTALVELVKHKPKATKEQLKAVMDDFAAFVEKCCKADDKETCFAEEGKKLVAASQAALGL
Molecule B1 yielded an HSA of 93300.

Regarding B2, the HSA turned out to be 2350.

On to B3, for which the HSA came out at 2750.

For the molecule B4, the HSA was 5000.

For B5, the HSA turned out to be 1950.

For the molecule B6, the HSA came to 2100.

Regarding B7, the HSA is 3250.

B8 registered an HSA of 1600.

B9: the HSA turned out to be 2960.

B10: the HSA is 3150.

As for B11, the HSA turned out to be 9250.

On to B12, for which the HSA worked out at 6050.

Consider B13, for which the HSA was 2050.

As for B14, the HSA came out at 3500.

On to B15, for which the HSA was found to be 3400.

B16 returned an HSA of 5700.
